Assay results published in patent US20210032299A1 (Eli Lilly, published 2021).
Starred links: 1 amine or outer side, 2 acyl side, 3 side chain; linkers in the order of their positions; H or OH if unused. Non-standard residues stand in square brackets, D forms with d. Groups on a side chain read outwards from the residue. No end group written: not given here. *: point of attachment. C20 diacid = O=C(O)CCCCCCCCCCCCCCCCCCC(=O)*; γGlu = O=C(O)[C@H](CCC(=O)[*:2])N[*:1]; 4Pal = N[C@@H](Cc1ccncc1)C(=O)O; αMeL = CC(C)C[C@](C)(N)C(=O)O; AEEA = NCCOCCOCC(=O)O; Aib = CC(C)(N)C(=O)O

T1: human glucose-dependent insulinotropic peptide receptor (human, UniProt P48546 22-466)
T1 sequence (looked up): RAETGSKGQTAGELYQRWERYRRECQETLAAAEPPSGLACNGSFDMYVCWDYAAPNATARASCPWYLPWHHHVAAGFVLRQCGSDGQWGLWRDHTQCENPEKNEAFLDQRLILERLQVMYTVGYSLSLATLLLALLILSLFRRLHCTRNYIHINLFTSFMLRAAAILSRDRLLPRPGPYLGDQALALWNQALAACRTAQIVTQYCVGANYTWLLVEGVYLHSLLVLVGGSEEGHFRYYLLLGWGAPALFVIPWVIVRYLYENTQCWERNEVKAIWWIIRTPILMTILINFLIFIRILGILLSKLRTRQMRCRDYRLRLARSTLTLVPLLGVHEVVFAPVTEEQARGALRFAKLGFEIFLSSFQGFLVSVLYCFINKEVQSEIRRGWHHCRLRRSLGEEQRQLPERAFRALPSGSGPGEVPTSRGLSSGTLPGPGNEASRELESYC


Columns and labels:
Test in all cases: cell-based or functional assay
[1] = molecular target: human glucagon receptor (human, UniProt P47871 26-477)
[2] = molecular target: T1, human glucose-dependent insulinotropic …
[3] = molecular target: human GLP-1 receptor (human, UniProt P43220 24-463)

human glucagon receptor, sequence (P47871 26-477): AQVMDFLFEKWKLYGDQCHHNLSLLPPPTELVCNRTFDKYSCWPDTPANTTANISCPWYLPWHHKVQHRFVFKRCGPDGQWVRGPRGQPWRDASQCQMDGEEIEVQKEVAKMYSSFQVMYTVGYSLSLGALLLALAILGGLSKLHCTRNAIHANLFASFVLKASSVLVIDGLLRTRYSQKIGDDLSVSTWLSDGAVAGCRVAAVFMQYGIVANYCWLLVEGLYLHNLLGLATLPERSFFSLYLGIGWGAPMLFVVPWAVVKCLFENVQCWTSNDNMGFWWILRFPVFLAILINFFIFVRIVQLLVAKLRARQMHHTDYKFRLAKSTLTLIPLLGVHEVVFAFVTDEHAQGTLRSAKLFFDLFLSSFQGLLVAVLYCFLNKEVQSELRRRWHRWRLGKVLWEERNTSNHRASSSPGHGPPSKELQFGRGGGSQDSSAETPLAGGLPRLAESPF

| Binder | hGcgR cAMP Rel EC50 [1] [nM] | hGIPR cAMP Rel EC50 [2] [nM] | hGLP1R cAMP Rel EC50 [3] [µM] |
| --- | --- | --- | --- |
| Y[Aib]EGTFISDYSI[αMeL]LDKK([AEEA-AEEA-γGlu-C20 diacid])HQ[Aib]DFVE[4Pal]LLAGGPSSGAPPPS-NH2 (N-terminus assumed; SMILES CC[C@H](C)[C@H](NC(=O)[C@H](Cc1ccccc1)NC(=O)[C@@H](NC(=O)CNC(=O)[C@H](CCC(=O)O)NC(=O)C(C)(C)NC(=O)[C@@H](N)Cc1ccc(O)cc1)[C@@H](C)O)C(=O)N[C@@H](CO)C(=O)N[C@@H](CC(=O)O)C(=O)N[C@@H](Cc1ccc(O)cc1)C(=O)N[C@@H](CO)C(=O)N[C@H](C(=O)N[C@@](C)(CC(C)C)C(=O)N[C@@H](CC(C)C)C(=O)N[C@@H](CC(=O)O)C(=O)N[C@@H](CCCCN)C(=O)N[C@@H](CCCCNC(=O)COCCOCCNC(=O)COCCOCCNC(=O)CC[C@H](NC(=O)CCCCCCCCCCCCCCCCCCC(=O)O)C(=O)O)C(=O)N[C@@H](Cc1c[nH]cn1)C(=O)N[C@@H](CCC(N)=O)C(=O)NC(C)(C)C(=O)N[C@@H](CC(=O)O)C(=O)N[C@@H](Cc1ccccc1)C(=O)N[C@H](C(=O)N[C@@H](CCC(=O)O)C(=O)N[C@@H](Cc1ccncc1)C(=O)N[C@@H](CC(C)C)C(=O)N[C@@H](CC(C)C)C(=O)N[C@@H](C)C(=O)NCC(=O)NCC(=O)N1CCC[C@H]1C(=O)N[C@@H](CO)C(=O)N[C@@H](CO)C(=O)NCC(=O)N[C@@H](C)C(=O)N1CCC[C@H]1C(=O)N1CCC[C@H]1C(=O)N1CCC[C@H]1C(=O)N[C@@H](CO)C(N)=O)C(C)C)[C@@H](C)CC) [Example 48] | 1360 | 0.0166 | > 5 |
| Y[Aib]EGTFISDYSI[αMeL]LDKK([AEEA-AEEA-γGlu-C20 diacid])HQ[Aib]DFVE[4Pal]LLEGGPSSGAPPPS-NH2 (N-terminus assumed; SMILES CC[C@H](C)[C@H](NC(=O)[C@H](Cc1ccccc1)NC(=O)[C@@H](NC(=O)CNC(=O)[C@H](CCC(=O)O)NC(=O)C(C)(C)NC(=O)[C@@H](N)Cc1ccc(O)cc1)[C@@H](C)O)C(=O)N[C@@H](CO)C(=O)N[C@@H](CC(=O)O)C(=O)N[C@@H](Cc1ccc(O)cc1)C(=O)N[C@@H](CO)C(=O)N[C@H](C(=O)N[C@@](C)(CC(C)C)C(=O)N[C@@H](CC(C)C)C(=O)N[C@@H](CC(=O)O)C(=O)N[C@@H](CCCCN)C(=O)N[C@@H](CCCCNC(=O)COCCOCCNC(=O)COCCOCCNC(=O)CC[C@H](NC(=O)CCCCCCCCCCCCCCCCCCC(=O)O)C(=O)O)C(=O)N[C@@H](Cc1c[nH]cn1)C(=O)N[C@@H](CCC(N)=O)C(=O)NC(C)(C)C(=O)N[C@@H](CC(=O)O)C(=O)N[C@@H](Cc1ccccc1)C(=O)N[C@H](C(=O)N[C@@H](CCC(=O)O)C(=O)N[C@@H](Cc1ccncc1)C(=O)N[C@@H](CC(C)C)C(=O)N[C@@H](CC(C)C)C(=O)N[C@@H](CCC(=O)O)C(=O)NCC(=O)NCC(=O)N1CCC[C@H]1C(=O)N[C@@H](CO)C(=O)N[C@@H](CO)C(=O)NCC(=O)N[C@@H](C)C(=O)N1CCC[C@H]1C(=O)N1CCC[C@H]1C(=O)N1CCC[C@H]1C(=O)N[C@@H](CO)C(N)=O)C(C)C)[C@@H](C)CC) [Example 47] | 757 | 0.0234 | > 5 |
